We go through one substance from article PMC3418443.

This test has as its target IL-1 receptors on the surface of HIG-82 synoviocytes (rabbit (endogenous in HIG-82)). In words: flow cytometry on cells. In general terms: Flow cytometry measures light scatter and fluorescence of single cells or particles in a stream.

Sequence of IL-1β (P01584 117-269): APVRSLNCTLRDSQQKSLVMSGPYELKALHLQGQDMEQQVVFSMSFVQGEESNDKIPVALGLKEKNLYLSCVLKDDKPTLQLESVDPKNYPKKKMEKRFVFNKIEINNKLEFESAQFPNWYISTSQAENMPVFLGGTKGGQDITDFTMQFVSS

The substance “IL-1β (from UniProt P01584 117-269) (ligand)” had a % cells with bound IL-1Ra-particles after pre-block with IL-1β of 2.8%.
